Measured values from IntAct's records for PubMed 25081058.

B1: Tyrosine-protein phosphatase non-receptor type 18 (Homo sapiens), Q99952-1 (parent)
chain: MSRSLDSARSFLERLEARGGREGAVLAGEFSDIQACSAAWKADGVCSTVAGSRPENVRKNRYKDVLPYDQTRVILSLLQEEGHSDYINGNFIRGVDGSLAYIATQGPLPHTLLDFWRLVWEFGVKVILMACREIENGRKRCERYWAQEQEPLQTGLFCITLIKEKWLNEDIMLRTLKVTFQKESRSVYQLQYMSWPDRGVPSSPDHMLAMVEEARRLQGSGPEPLCVHCSAGCGRTGVLCTVDYVRQLLLTQMIPPDFSLFDVVLKMRKQRPAAVQTEEQYRFLYHTVAQMFCSTLQNASPHYQNIKENCAPLYDDALFLRTPQALLAIPRPPGGVLRSISVPGSPGHAMADTYAVVQKRGAPAGAGSGTQTGTGTGTGARSAEEAPLYSKVTPRAQRPGAHAEDARGTLPGRVPADQSPAGSGAYEDVAGGAQTGGLGFNLRIGRPKGPRDPPAEWTRV

Variants of: B1
Conditions: with fbw1a_human BTRC

effect of a mutation on the interaction | Variant
decreasing interaction strength | MSRSLDSARSFLERLEARGGREGAVLAGEFSDIQACSAAWKADGVCSTVAGSRPENVRKNRYKDVLPYDQTRVILSLLQEEGHSDYINGNFIRGVDGSLAYIATQGPLPHTLLDFWRLVWEFGVKVILMACREIENGRKRCERYWAQEQEPLQTGLFCITLIKEKWLNEDIMLRTLKVTFQKESRSVYQLQYMSWPDRGVPSSPDHMLAMVEEARRLQGSGPEPLCVHCSAGCGRTGVLCTVDYVRQLLLTQMIPPDFSLFDVVLKMRKQRPAAVQTEEQYRFLYHTVAQMFCSTLQNASPHYQNIKENCAPLYDDALFLRTPQALLAIPRPPGGVLRSISVPGSPGHAMADTYAVVQKRGAPAGAGSGTQTGTGTGTGARSAEEAPLYSKVTPRAQRPGAHAEDARGTLPGRVPADQAPAGSGAYEDVAGGAQTGGLGFNLRIGRPKGPRDPPAEWTRV [S419A]
disrupting interaction strength | MSRSLDSARSFLERLEARGGREGAVLAGEFSDIQACSAAWKADGVCSTVAGSRPENVRKNRYKDVLPYDQTRVILSLLQEEGHSDYINGNFIRGVDGSLAYIATQGPLPHTLLDFWRLVWEFGVKVILMACREIENGRKRCERYWAQEQEPLQTGLFCITLIKEKWLNEDIMLRTLKVTFQKESRSVYQLQYMSWPDRGVPSSPDHMLAMVEEARRLQGSGPEPLCVHCSAGCGRTGVLCTVDYVRQLLLTQMIPPDFSLFDVVLKMRKQRPAAVQTEEQYRFLYHTVAQMFCSTLQNASPHYQNIKENCAPLYDDALFLRTPQALLAIPRPPGGVLRSISVPGSPGHAMADTYAVVQKRGAPAGAGSGTQTGTGTGTGARSAEEAPLYSKVTPRAQRPGAHAEDARGTLPGRVPADQSPAGAGAYEDVAGGAQTGGLGFNLRIGRPKGPRDPPAEWTRV [S423A]
